According to patent publication US5543308:

Tests used:
[1] = test system: FseI restriction endonuclease (from pRMFseR1, NEB#918, His at position 2) T2H (Frankia species NRRL 18528); experiment: cleavage_in_vitro; conditions: crude extract, NEBuffer 1, 30 C, 1 h; estimated titer
[2] = test system: FseI restriction endonuclease (from pRMFseR2, NEB#943, ATCC 69707) (Frankia species NRRL 18528); experiment: cleavage_in_vitro; conditions: crude extract; estimated titer; substrate inferred from section 7

Adenovirus-2 DNA
activity (units/g cells) [1]: > 10000
activity (units/g cells) [2]: > 10000
